The values that follow are results of earlier work, collected in publication PMC12692374.

The Kd is the equilibrium constant for the complex coming apart.

The data set deals with HIV-1 capsid (Human immunodeficiency virus 1) (UniProt O93182).
HIV-1 capsid (Human immunodeficiency virus 1), sequence (O93182 133-363): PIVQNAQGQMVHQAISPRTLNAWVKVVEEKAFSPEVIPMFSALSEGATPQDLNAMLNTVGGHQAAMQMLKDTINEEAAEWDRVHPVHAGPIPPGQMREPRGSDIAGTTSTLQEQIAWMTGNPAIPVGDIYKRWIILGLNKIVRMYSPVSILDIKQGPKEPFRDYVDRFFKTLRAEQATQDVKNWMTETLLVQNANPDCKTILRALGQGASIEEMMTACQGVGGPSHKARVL

NONO, sequence (Q15233 whole entry): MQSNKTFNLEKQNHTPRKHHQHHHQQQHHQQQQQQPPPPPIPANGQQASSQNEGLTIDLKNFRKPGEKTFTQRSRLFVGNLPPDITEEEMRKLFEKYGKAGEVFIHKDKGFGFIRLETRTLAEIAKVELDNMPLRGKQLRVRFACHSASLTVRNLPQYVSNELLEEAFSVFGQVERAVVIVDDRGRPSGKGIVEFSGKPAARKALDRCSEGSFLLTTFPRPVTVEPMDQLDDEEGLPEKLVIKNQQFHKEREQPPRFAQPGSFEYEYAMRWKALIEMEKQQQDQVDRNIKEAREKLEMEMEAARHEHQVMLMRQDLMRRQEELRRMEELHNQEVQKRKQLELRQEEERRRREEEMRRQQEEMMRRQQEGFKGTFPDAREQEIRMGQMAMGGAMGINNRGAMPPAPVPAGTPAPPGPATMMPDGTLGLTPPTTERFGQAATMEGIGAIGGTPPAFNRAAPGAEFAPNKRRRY

As to NONO (from UniProt Q15233), the Kd is 9.15 µM.
